Results reported in patent publication US20120253017A1 (published 2012).

B3: mouse Stem Cell Factor, 6xHIS tag (ligand, UniProt P20826 26-190, looked up)
chain: KEICGNPVTDNVKDITKLVANLPNDYMITLNYVAGMDVLPSHCWLRDMVIQLSLSLTTLLDKFSNISEGLSNYSIIDKLGKIVDDLVLCMEENAPKNIKESPKRPETRSFTPEEFFSIFNRSIDAFKDFMVASDTSDCVLSSTLGPEKDSRVSVTKPFMLPPVAA
notes: also called mSCF; murine SCF

Key:
[1] = target: T1, human c-kit on HEL-92.1.7 and KU812 cells (human, UniProt P10721 26-976); assay: flow cytometry, HEL-92.1.7 cells (also YES on c-kit negative Jurkat)
T1 construct: whole, on cells
T1 sequence (P10721 26-976): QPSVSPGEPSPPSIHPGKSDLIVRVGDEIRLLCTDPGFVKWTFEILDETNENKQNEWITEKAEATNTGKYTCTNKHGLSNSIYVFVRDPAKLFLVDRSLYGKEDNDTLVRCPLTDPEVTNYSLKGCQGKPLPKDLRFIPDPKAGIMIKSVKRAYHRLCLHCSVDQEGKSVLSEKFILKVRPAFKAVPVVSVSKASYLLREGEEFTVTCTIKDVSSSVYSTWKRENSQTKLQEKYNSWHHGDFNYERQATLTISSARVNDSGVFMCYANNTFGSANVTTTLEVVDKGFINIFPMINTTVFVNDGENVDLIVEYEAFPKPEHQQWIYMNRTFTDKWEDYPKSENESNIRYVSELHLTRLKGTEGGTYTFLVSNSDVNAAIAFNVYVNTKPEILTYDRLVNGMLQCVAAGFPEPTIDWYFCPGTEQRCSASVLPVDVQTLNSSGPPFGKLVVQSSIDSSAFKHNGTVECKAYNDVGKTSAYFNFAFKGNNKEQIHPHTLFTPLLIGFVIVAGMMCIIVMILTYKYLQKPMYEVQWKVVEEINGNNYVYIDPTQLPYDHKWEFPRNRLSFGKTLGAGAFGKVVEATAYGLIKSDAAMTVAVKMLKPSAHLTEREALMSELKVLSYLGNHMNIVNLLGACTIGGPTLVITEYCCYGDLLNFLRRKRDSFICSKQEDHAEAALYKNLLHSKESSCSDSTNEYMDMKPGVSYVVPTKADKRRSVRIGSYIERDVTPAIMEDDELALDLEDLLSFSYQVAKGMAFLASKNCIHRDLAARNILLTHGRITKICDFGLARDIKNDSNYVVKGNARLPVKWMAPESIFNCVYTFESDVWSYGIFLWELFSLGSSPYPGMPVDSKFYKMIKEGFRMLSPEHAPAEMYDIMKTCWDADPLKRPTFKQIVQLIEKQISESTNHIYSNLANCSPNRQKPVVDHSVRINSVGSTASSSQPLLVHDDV

[2] = target: T2, human c-kit (recombinant, on BIAcore chip or beads) (human, UniProt P10721 26-524); assay: BIAcore 2000
T2 construct: extracellular domain; also called hcKIT; biotinylated human c-kit

rat cKIT ECD = target: T3, rat cKIT ECD (rat, UniProt Q63116 25-526); assay: BIAcore, bad fit
T3 construct: cloned into pDOM38, which provides a human IgG1 Fc; also called rcKIT; rckit; not shown: Human IgG1 Fc (and any linker) supplied by vector pDOM38
T3 sequence (Q63116 entry or part of it limits assumed, form in doubt): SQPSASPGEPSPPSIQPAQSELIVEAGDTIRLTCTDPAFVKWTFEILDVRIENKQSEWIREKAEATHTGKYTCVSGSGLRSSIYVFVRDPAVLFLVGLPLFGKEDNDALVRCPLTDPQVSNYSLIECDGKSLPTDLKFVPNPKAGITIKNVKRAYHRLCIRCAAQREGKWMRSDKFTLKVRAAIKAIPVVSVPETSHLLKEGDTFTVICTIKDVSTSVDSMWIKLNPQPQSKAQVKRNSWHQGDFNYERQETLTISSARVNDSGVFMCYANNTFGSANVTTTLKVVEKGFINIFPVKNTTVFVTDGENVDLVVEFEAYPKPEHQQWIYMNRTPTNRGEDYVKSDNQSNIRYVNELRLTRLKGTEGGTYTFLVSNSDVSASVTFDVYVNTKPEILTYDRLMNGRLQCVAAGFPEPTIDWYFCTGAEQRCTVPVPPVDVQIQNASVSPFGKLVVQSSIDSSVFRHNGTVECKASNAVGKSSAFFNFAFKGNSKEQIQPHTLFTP

[3] = target: T4, cyno c-kit (recombinant, on BIAcore chip) (cynomolgus monkey); assay: BIAcore, c-kit on SA chip
T4 chain: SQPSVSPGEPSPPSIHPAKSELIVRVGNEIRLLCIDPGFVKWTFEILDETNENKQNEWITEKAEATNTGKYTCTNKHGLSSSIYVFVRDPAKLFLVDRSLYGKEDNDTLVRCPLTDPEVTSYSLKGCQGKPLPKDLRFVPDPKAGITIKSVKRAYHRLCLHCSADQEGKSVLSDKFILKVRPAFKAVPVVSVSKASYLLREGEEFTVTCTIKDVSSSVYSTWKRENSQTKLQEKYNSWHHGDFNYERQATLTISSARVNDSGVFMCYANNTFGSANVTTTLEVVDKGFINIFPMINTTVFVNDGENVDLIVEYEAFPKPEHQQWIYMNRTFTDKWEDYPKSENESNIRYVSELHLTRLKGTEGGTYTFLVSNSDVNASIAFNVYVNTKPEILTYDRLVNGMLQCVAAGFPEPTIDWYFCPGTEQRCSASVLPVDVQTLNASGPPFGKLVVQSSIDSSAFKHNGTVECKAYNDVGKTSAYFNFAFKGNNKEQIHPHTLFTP
Method: (§1) All unique dAb clones were expressed in 50 ml cultures (OnEX plus carbenicillin) overnight at 37° C. and purified on protein A (VH dAbs) or protein L (VK dAbs). Purified dAbs were passed over a SA BIAcore chip coated with either human or mouse c-kit at 1 μM to identify those dAbs that bound specifically to either human or murine c-kit.

[4] = target: T2, human c-kit (recombinant, on BIAcore …); assay: BIAcore, c-kit on SA chip
Method: as §1

Mouse cKIT ECD-H6 = target: T5, Mouse cKIT ECD-H6 (mouse, UniProt P05532 25-527); assay: BIAcore, SCF on CM5 chip
T5 construct: extracellular domain; also called mouse c-kit (His tagged)
T5 sequence (looked up): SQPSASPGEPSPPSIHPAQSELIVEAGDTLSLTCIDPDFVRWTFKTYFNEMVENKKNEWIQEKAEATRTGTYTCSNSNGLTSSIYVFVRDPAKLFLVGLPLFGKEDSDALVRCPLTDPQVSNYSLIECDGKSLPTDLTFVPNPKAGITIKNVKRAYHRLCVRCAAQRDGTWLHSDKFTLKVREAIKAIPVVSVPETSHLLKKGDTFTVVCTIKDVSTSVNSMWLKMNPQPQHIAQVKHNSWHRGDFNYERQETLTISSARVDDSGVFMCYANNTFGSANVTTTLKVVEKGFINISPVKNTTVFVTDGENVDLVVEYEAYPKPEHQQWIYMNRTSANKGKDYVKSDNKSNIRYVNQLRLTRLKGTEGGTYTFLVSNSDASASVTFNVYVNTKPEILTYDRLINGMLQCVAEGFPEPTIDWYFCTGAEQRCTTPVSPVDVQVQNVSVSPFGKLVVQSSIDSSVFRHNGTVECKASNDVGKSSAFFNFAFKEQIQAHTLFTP
Method: (§2) Human and murine SCF were covalently attached to a CM5 BIAcore chip (GE Healthcare) in the presence of acetate pH 4 for both antigens. cKIT from various species were diluted to 1 μM in HBS-EP buffer (GE Healthcare) and run on the BIAcore in a 2-fold serial dilution to 1 nM.
(§3) Anti-human and anti-mouse SCF monoclonal antibodies (mAb) were used as controls (R&D systems).

Human cKIT ECD-Fc = target: T6, Human cKIT ECD-Fc (human, UniProt P10721 26-524); assay: BIAcore, SCF on CM5 chip
T6 construct: extracellular domain; also called hcKIT; human c-KIT ECD-hIgG1 Fc fusion; not shown: human IgG1 Fc (pDOM38)
T6 sequence (P10721 26-524): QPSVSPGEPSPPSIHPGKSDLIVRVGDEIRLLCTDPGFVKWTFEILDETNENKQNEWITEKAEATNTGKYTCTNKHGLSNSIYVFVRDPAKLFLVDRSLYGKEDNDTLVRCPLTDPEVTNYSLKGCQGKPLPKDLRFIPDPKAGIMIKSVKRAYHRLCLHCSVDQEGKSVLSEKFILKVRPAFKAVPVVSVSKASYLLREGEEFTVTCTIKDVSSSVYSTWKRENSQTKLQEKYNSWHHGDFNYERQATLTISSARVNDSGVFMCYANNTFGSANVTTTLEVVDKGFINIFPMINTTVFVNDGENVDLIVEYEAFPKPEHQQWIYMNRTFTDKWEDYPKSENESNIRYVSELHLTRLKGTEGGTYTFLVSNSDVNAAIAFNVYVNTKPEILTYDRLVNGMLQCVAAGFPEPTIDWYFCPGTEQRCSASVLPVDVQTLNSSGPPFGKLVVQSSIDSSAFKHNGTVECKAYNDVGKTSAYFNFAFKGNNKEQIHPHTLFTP
Method: as §2, §3

[5] = target: T7, human Stem Cell Factor, 6xHIS tag (human, UniProt P21583 26-190, limits assumed); assay: BIAcore, SCF on CM5 chip
T7 construct: also called hSCF; human SCF
Method: as §2, §3

[6] = target: B3; assay: BIAcore, SCF on CM5 chip
Method: as §2, §3

[7] = target: T2, human c-kit (recombinant, on BIAcore …); assay: BIAcore 2000, 1 uM dAb
Method: All binding data was performed on a BIAcore 2000 instrument at 1 uM of dAb concentration.

[8] = target: T2, human c-kit (recombinant, on BIAcore …); assay: BIAcore
[9] = target: Myosin Light Chain (on streptavidin chip; vMLC1-sulfotag); assay: BIAcore, bad fit
Chain of Myosin Light Chain (on streptavidin chip; vMLC1-sulfotag) (chain, as listed by the source): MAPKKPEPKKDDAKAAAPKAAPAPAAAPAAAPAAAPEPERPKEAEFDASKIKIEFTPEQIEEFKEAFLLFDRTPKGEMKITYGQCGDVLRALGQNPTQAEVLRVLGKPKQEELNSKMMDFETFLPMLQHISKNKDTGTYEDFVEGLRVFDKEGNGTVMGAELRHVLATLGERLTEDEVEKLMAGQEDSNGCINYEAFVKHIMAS

[10] = target: T2, human c-kit (recombinant, on BIAcore …); assay: BIAcore, bad fit

B1: DOM28m-73 (other)
chain: EVQLLESGGGLVQPGGSLRLSCAASGFTFKHYSMNWVRQAPGKGLEWVSRISPSGVSTYYADSVKGRFTISRDNSKNTLYLQMNSLRAEDTAVYYCAKIMNSHKADEFDYWGQGTLVTVSS
notes: dAb, C-terminal FLAG tag (pDOM10)
Q: Does B1 bind [1]?
A: binds

Q: Does B1 bind [2]?
A: no binding (tested: 1 uM)

B2: DOM28m-7 (other)
VH: EVQLLESGGGLVQPGGSLRLSCAASGFTFSNYAMGWVRQAPGKGLEWVSSISSSGFATYYADSVKGRFTISRDNSKNTLYLQMNSLRAEDTAVYYCAKSESRTFKAFDYWGQGTLVTVSS
notes: VH dAb, C-terminal FLAG tag (pDOM10); also called DOM28m-007
Q: With B2 as the binder, how does the Kd (rat cKIT ECD) read?
A: 30 nM

Q: What about the Kd [3] of the same binder?
A: 29000 nM

Q: And the Kd [4]?
A: 7200 nM

Q: What does the source list for B3?
A: binding result (Mouse cKIT ECD-H6): no binding (tested: 1 µM); Kd (Human cKIT ECD-Fc): 17.7 nM

B4: Cyno cKIT ECD-H6 (receptor)
chain: SQPSVSPGEPSPPSIHPAKSELIVRVGNEIRLLCIDPGFVKWTFEILDETNENKQNEWITEKAEATNTGKYTCTNKHGLSSSIYVFVRDPAKLFLVDRSLYGKEDNDTLVRCPLTDPEVTSYSLKGCQGKPLPKDLRFVPDPKAGITIKSVKRAYHRLCLHCSADQEGKSVLSDKFILKVRPAFKAVPVVSVSKASYLLREGEEFTVTCTIKDVSSSVYSTWKRENSQTKLQEKYNSWHHGDFNYERQATLTISSARVNDSGVFMCYANNTFGSANVTTTLEVVDKGFINIFPMINTTVFVNDGENVDLIVEYEAFPKPEHQQWIYMNRTFTDKWEDYPKSENESNIRYVSELHLTRLKGTEGGTYTFLVSNSDVNASIAFNVYVNTKPEILTYDRLVNGMLQCVAAGFPEPTIDWYFCPGTEQRCSASVLPVDVQTLNASGPPFGKLVVQSSIDSSAFKHNGTVECKAYNDVGKTSAYFNFAFKGNNKEQIHPHTLFTP
Q: B4 was tested. Which Kd [5] did it give?
A: 369 nM

Q: And the Kd [6]?
A: 867 nM

B5: DOM28m-23 (other)
VH: EVRLLESGGGLVQPGGSLRLSCAASGFTFRDYVMVWVRQAPGKGLEWVSAIAPTGGYTYYADSVKGRFTISRDNSKNTLYLQMNSLRAEDTAVYYCAKSLRTWLSEDLPFDYWGQGTLVTVSS
notes: VH dAb, C-terminal FLAG tag (pDOM10); also called DOM28m-023
Q: With B5 as the binder, how does the Kd [7] read?
A: 6000 nM

Q: What about the Kd (rat cKIT ECD) of the same binder?
A: 25 nM

Q: What about the Kd [8] of the same binder?
A: 6000 nM

Q: What about the Kd [3] of the same binder?
A: 2720 nM

Q: What about the Kd [4] of the same binder?
A: 2900 nM

B6: DMS5059 (chimeric MLC mAb-cKIT dAb, DOM28m-114) (bispecific antibody)
heavy: not shown
light: DIVMSQSPSSLAVSAGDKVTMSCKSSQSLLYSRTRKNYLAWYQQKPGQSPKLLIYWASTRQSGVPDRFTGSGSGTDFTLTISSVQAEDLAVYYCKQSYNLFTFGSGTKLEIKRTVAAPSVFIFPPSDEQLKSGTASVVCLLNNFYPREAKVQWKVDNALQSGNSQESVTEQDSKDSTYSLSSTLTLSKADYEKHKVYACEVTHQGLSSPVTKSFNRGEC
Q: Which results are given for B6?
A: Kd [9]: 10 nM; Kd [10]: 8 nM
